From patent US20240301033A1 (published 2024)

What was measured:
[1] = biological target: T1, human CD8 alpha (CD8A) on primary human CD8+ T cells (human, UniProt P01732 22-235); assay: flow cytometry, human CD8+ T cells, 0.2 uM
T1 construct: whole, on cells
Procedure: (§1) Binding of the 190 ELISA hits to human and cynomologous monkey primary CD8 T cells was assessed by flow cytometry. The FN3 domain molecules were diluted to 2 μM and 0.2 μM in PBS and incubated with human or cynomologous monkey CD8+ T cells in 96-well format. After 1 hour at 4° C., the cells were washed once with PBS and then resuspended with an anti-FN3 domain antibody (PAB25) solution. Following this incubation, the cells were washed twice with PBS and a PE conjugated secondary antibody and a viability dye were added. Finally, cells were washed and resuspended in PBS for flow cytometric analysis using a BD Canto Instrument. Cells were gating on live cells and median fluorescence intensity of the bound Centyrins (PE channel) was calculated using Cytobank software.

[2] = biological target: T2, cynomolgus monkey CD8A on primary cynomolgus CD8+ T cells (cynomolgus monkey, UniProt P01732 23-235 (human entry)); assay: flow cytometry, cyno CD8+ T cells, 2 uM
T2 construct: also called Cyno CD8alpha
T2 sequence (P01732 other isoform, or with tags, fused parts or gaps limits assumed): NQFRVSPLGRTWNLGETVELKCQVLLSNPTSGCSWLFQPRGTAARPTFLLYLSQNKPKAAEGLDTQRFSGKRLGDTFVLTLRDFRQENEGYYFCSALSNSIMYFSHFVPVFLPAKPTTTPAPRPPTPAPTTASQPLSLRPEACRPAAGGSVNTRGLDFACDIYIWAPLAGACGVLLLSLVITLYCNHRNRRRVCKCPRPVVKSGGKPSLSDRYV
Procedure: as §1

[3] = biological target: T1, human CD8 alpha (CD8A) on primary human …; assay: flow cytometry, human CD8+ T cells, 2 uM
Procedure: as §1

[4] = biological target: T2, cynomolgus monkey CD8A on primary …; assay: flow cytometry, cyno CD8+ T cells, 0.2 uM
Procedure: as §1

T1 sequence (P01732 22-235): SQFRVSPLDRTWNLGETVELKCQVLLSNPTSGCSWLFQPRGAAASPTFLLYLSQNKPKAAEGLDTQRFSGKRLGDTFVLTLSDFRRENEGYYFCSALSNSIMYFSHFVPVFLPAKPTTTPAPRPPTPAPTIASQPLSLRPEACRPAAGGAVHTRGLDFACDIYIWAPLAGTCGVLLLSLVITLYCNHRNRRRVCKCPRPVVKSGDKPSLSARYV

B1: Tencon25-His (designed binder, not shown: small tags and cut ends)
chain: LPAPKNLVVSEVTEDSARLSWTAPDAAFDSFLIQYQESEKVGEAIVLTVPGSERSYDLTGLKPGTEYTVSIYGVKGGHRSNPLSAIFTT
notes: kd not given
In the case of B1, the “Human T-cell Binding 0.2 uM (MFI)” value [1] is reported as 219 MFI, the “Cyno T-cell Binding 2 uM (MFI)” value [2] is reported as 337 MFI and the “Human T-cell Binding 2 uM (MFI)” value [3] is reported as 341 MFI. For the same binder, the “Cyno T-cell Binding 0.2 uM (MFI)” value [4] was 336 MFI.
